Source: article PMC6886522

Assays:
[1] = tested on: NC(=O)c1ncn([C@@H]2O[C@H](COP(=O)(O)O)[C@@H](O)[C@H]2O)c1N=CN[C@@H]1O[C@H](COP(=O)(O)O)[C@@H](O)[C@H]1O; assay: purified protein
[2] = tested on: O=C(O)c1ccccc1N[C@@H]1O[C@H](COP(=O)(O)O)[C@@H](O)[C@H]1O; assay: purified protein
[3] = substrate: O=C(O)c1ccccc1N[C@@H]1O[C@H](COP(=O)(O)O)[C@@H](O)[C@H]1O; assay: PRA isomerase steady-state kinetics; format: biochemical, Streptomyces sp. C
[4] = substrate: NC(=O)c1ncn([C@@H]2O[C@H](COP(=O)(O)O)[C@@H](O)[C@H]2O)c1N=CN[C@@H]1O[C@H](COP(=O)(O)O)[C@@H](O)[C@H]1O; assay: ProFAR isomerase steady-state kinetics; format: biochemical, Streptomyces sp. C
[5] = substrate: O=C(O)c1ccccc1N[C@@H]1O[C@H](COP(=O)(O)O)[C@@H](O)[C@H]1O; assay: PRA isomerase steady-state kinetics; format: biochemical, Streptomyces ipomoeae
[6] = substrate: NC(=O)c1ncn([C@@H]2O[C@H](COP(=O)(O)O)[C@@H](O)[C@H]2O)c1N=CN[C@@H]1O[C@H](COP(=O)(O)O)[C@@H](O)[C@H]1O; assay: ProFAR isomerase steady-state kinetics; format: biochemical, Streptomyces ipomoeae
[7] = substrate: O=C(O)c1ccccc1N[C@@H]1O[C@H](COP(=O)(O)O)[C@@H](O)[C@H]1O; assay: PRA isomerase steady-state kinetics; format: biochemical, Streptomyces globisporus
[8] = substrate: NC(=O)c1ncn([C@@H]2O[C@H](COP(=O)(O)O)[C@@H](O)[C@H]2O)c1N=CN[C@@H]1O[C@H](COP(=O)(O)O)[C@@H](O)[C@H]1O; assay: ProFAR isomerase steady-state kinetics; format: biochemical, Streptomyces globisporus
[9] = substrate: O=C(O)c1ccccc1N[C@@H]1O[C@H](COP(=O)(O)O)[C@@H](O)[C@H]1O; assay: PRA isomerase steady-state kinetics; format: biochemical, Streptomyces sviceus
[10] = substrate: NC(=O)c1ncn([C@@H]2O[C@H](COP(=O)(O)O)[C@@H](O)[C@H]2O)c1N=CN[C@@H]1O[C@H](COP(=O)(O)O)[C@@H](O)[C@H]1O; assay: ProFAR isomerase steady-state kinetics; format: biochemical, Streptomyces sviceus
[11] = substrate: O=C(O)c1ccccc1N[C@@H]1O[C@H](COP(=O)(O)O)[C@@H](O)[C@H]1O; assay: PRA isomerase steady-state kinetics; format: biochemical, Jonesia denitrificans
[12] = substrate: O=C(O)c1ccccc1N[C@@H]1O[C@H](COP(=O)(O)O)[C@@H](O)[C@H]1O; assay: PRA isomerase steady-state kinetics; format: biochemical, Mycolicibacterium smegmatis; settings: pH 7.5
[13] = substrate: NC(=O)c1ncn([C@@H]2O[C@H](COP(=O)(O)O)[C@@H](O)[C@H]2O)c1N=CN[C@@H]1O[C@H](COP(=O)(O)O)[C@@H](O)[C@H]1O; assay: ProFAR isomerase steady-state kinetics; format: biochemical, Mycolicibacterium smegmatis; settings: pH 7.5

## PriB_SMg1 (Streptomyces sp.)
[1]
  Km: 13.2 ± 3.4 µM
  kcat: 0.92 ± 0.19 s⁻¹
  kcat/Km: 69000 M⁻¹ s⁻¹
[2]
  Km: 129.6 ± 34 µM
  kcat: 0.29 ± 0.04 s⁻¹
  kcat/Km: 2200 M⁻¹ s⁻¹

B1: PriB_SspC (Streptomyces sp. C) (protein)
chain: MPNTLELLPAVDVRDGQAVRLVHGVSGSETSYGSPLEAALAWQASGAEWLHLVDLDAAFGTGDNRALVADITRAMDIKVELSGGIRDDATLAAALATGCTRVNLGTAALETPEWAAKAIAEHGDRIAIGLDVRGTTLKGRGWTSEGGDLYETLARLDSEGCARYVVTDIGKDGTLTGPNLELLKNVCAATDRPVVASGGVSSLDDLRALSELVPLGVEGAIVGKALYAKAFTLEEALEAVRA
[3]
  Km: 149.9 ± 29 µM
  kcat: 1.4 ± 0.12 s⁻¹
  kcat/Km: 9000 M⁻¹ s⁻¹
[4]
  Km: 11.4 ± 3.4 µM
  kcat: 2.53 ± 0.74 s⁻¹
  kcat/Km: 220000 M⁻¹ s⁻¹

B2: PriB_Sipo (Streptomyces ipomoeae 91-03) (protein)
chain: MAKLELLPAVDVRDGQAVRLVHGESGTETSYGSPLEAALAWQRAGAEWLHLVDLDAAFGTGDNRDLVAEVTRAMDIKVELSGGIRDDASLAKALATGCTRVNLGTAALETPEWVAKVIAEHGDKIAVGLDVKGTTLRGRGWTRDGGDLYETLERLDKEGCARYVVTDIAKDGTLQGPNLELLRNVCAATDRPVVASGGVSSLDDLRAIAELVPLGVEGAIVGKALYAKAFTLEEALEATS
[5]
  Km: 60.8 ± 1.1 µM
  kcat: 8.25 ± 0.4 s⁻¹
  kcat/Km: 140000 M⁻¹ s⁻¹
[6]
  Km: 3.8 ± 0.2 µM
  kcat: 0.82 ± 0.02 s⁻¹
  kcat/Km: 210000 M⁻¹ s⁻¹

B3: PriA_Sglo (Streptomyces globisporus) (protein)
chain: MPKLELLPAVDVRDGQAVRLVHGESGSETSYGSPLEAALAWQSAGAEWLHLVDLDAAFGTGDNRALIAEVAGAMDIKVELSGGIRDDASLEAALATGCRRVNLGTAALETPEWVAKVIAEHGDKIAVGLDVRGTTLRGRGWTRDGGDLYETLARLDAEGCARYVVTDIAKDGTLEGPNLGLLRDVCAVTDRPVVASGGVSSLDDLRAISLLVPEGVEGAIVGKALYAKAFTLEEALKAVAA
[7]
  Km: 11 ± 1.0 µM
  kcat: 3.8 ± 0.2 s⁻¹
  kcat/Km: 340000 M⁻¹ s⁻¹
[8]
  Km: 4.2 ± 0.8 µM
  kcat: 0.74 ± 0.03 s⁻¹
  kcat/Km: 180000 M⁻¹ s⁻¹

B4: TrpF-3_Sipo (Streptomyces ipomoeae 91-03) (protein)
chain: MSVSNSNDSLFIKICGLRTERDVDTAVEAGADAVGFVFSASPRQIDADTAARLCDRVPEHVLTVGVFRDEPLRDVRSFATDSGIRAVQLHGPEDRAYYDDLAKGDWTLIRAAAFGDTVPRCGEFGEDMLLIDAPVPGSGIAWDWSSKPLAGSGERWILAGGLSPENVRDAVAATQPWGVDVSSGVELSRGVKDPALITEFVKAVRGGC
[5]
  Km: 23.0 ± 1.3 µM
  kcat: 4.3 ± 0.35 s⁻¹
  kcat/Km: 190000 M⁻¹ s⁻¹

B5: TrpF-3_Ssvi (Streptomyces sviceus ATCC 29083) (protein)
chain: MTLFVKICGLRTEQDVDTAVEAGADAIGFVFSDSPRRIDPAAAARLAARIPESVLTVGVFRREPLEYVRSVAAESGIGAVQLHGPEDRAYYDELSGGGWTLIRAAAFGDRVPRCGELGEDMLLLDAPVPGSGIAWDWSRKQVAGAGEKWLLAGGLTPENVREAVDVTRPWGVDVSSGVEASRGVKNPALITAFVEAARAGAVTSG
[9]
  Km: 9.4 ± 0.47 µM
  kcat: 0.82 ± 0.08 s⁻¹
  kcat/Km: 88000 M⁻¹ s⁻¹

B6: PriB_Ssvi (Streptomyces sviceus ATCC 29083) (protein)
chain: MPSKLSRLELLPAVDVRDGQAVRLVHGESGTETSYGSPLEAALSWQRAGAEWLHLVDLDAAFGTGDNRELVRQVTEAMDIKVELSGGIRDDASLAAALATGCTRVNLGTAALESPEWVAKVIAEHGDRIAVGLDVRGTTLKGRGWTSEGGDLYEALERLDKEGCARYVVTDIAKDGTLQGPNLELLRNVCAATDRPVVASGGVSSLDDLRAIAELVPLGVEGSIVGKALYAKAFTLEEALEAVAQ
[10]
  Km: 3.9 ± 0.89 µM
  kcat: 0.69 ± 0.04 s⁻¹
  kcat/Km: 180000 M⁻¹ s⁻¹
[9]
  Km: 24.5 ± 4.0 µM
  kcat: 1.6 ± 0.29 s⁻¹
  kcat/Km: 67000 M⁻¹ s⁻¹

B7: TrpF-3_Jden (Jonesia denitrificans DSM 20603) (protein)
chain: MYIKVCGLTDPHAIDAAQAAHVDAIGFVHAPTSPRHLTPPHISTLTATVDCTIDTVLVVATTPIADALALAESTGVSVLQLHGQYSDDDVAYAAARFPRVWRATSLSASPNLTVGAYGEELLLLDAPQAGSGHTWDFAALAHRRPTGRWLLAGGLTPDNVADAITTTSPWGVDVSSGVESAPGVKDPAKIAAFVQAARGVSCPR
[11]
  Km: 16.8 ± 3.3 µM
  kcat: 27 ± 1.6 s⁻¹
  kcat/Km: 1.6e+06 M⁻¹ s⁻¹

B8: PriA_Msme (Mycolicibacterium smegmatis MC2 155) (protein)
chain: MATGATEAAGAGKRGLILLPAVDVVNGQAVRLVQGKAGSETDYGSAIEAAEAWQRDGAEWIHLVDLDAAFGRGSNRELLAEVVGKLDVAVELSGGIRDDESLRAALDTGCARVNIGTAALENPQWCARAIAEHGDRVAVGLDAQTDGAGGFRLRGRGWETDGGDLWEVLDRLDSEGCSRYVVTDVSKDGTLTGPNLDLLAAVAGRTDAPVIASGGVSSLDDLRAIATLTGVGVEGAIVGKALYAGRFTLPQALSAVSG
[12]
  Km: 7.9 ± 2.4 µM
  kcat: 3.1 ± 0.43 s⁻¹
  kcat/Km: 390000 M⁻¹ s⁻¹
[13]
  Km: 2.6 ± 0.5 µM
  kcat: 0.85 ± 0.04 s⁻¹
  kcat/Km: 330000 M⁻¹ s⁻¹
